The series concerns the molecule itself. Description: analytical ultracentrifugation.

The term Kd denotes the equilibrium constant for the complex coming apart. Read a low Kd as a tighter complex.

B1: Phenylalanine hydroxylase regulatory domain (RDPheH) 1-117 (protein)
chain: MAAVVLENGVLSRKLSDFGQETSYIEDNSNQNGAISLIFSLKEEVGALAKVLRLFEENDINLTHIESRPSRLNKDEYEFFTYLDKRTKPVLGSIIKSLRNDIGATVHELSRDKEKNT
As for B1, the Kd stood at 46 µM.

B2: Phenylalanine hydroxylase regulatory domain (RDPheH25-117) 25-117 (protein)
chain: IEDNSNQNGAISLIFSLKEEVGALAKVLRLFEENDINLTHIESRPSRLNKDEYEFFTYLDKRTKPVLGSIIKSLRNDIGATVHELSRDKEKNT
B2 registered a Kd of 46 µM.
